The results in this text go back to article PMC9546773, “Prediction of protein–ligand binding affinity from sequencing data with interpretable machine learning”.

Changes are numbered by the printed parent chain.

The data set addresses Dll (DllΔN) (Drosophila melanogaster, UniProt P20009 124-327). Description: EMSA; 1:1 mix of dialysis buffer (20 mM HEPES pH 8.0, 200 mM NaCl, 10% glycerol, 2 mM MgCl2, 0.05% Tween 20) and DNA mix; final about 150 mM NaCl, 10 mM Tris pH 7.5. The conditions noted are these: tags: His6 (kept); label: Cy5 on the primer strand.

Sequence of Dll (DllΔN) (P20009 124-327, stated change not applied): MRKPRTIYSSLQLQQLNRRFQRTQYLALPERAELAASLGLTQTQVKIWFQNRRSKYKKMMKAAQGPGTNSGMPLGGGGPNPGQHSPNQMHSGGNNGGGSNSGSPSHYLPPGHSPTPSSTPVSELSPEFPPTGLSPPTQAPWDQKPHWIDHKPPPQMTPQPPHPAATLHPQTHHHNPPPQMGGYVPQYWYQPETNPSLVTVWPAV

B1: probe 1 (dsDNA)
DNA 1: GTTCAGAGTTCTACAGTCCGACCTGGTTTAATTGGTCCAGGACTCGGACCTGGACTAGG
DNA 2: CCTAGTCCAGGTCCGAGTCCTGGACCAATTAAACCAGGTCGGACTGTAGAACTCTGAAC
With B1, the equilibrium dissociation constant (Kd) (in general, the constant that tells how readily two partners part at equilibrium) is 5.2 nM.

B2: probe 3 (dsDNA)
DNA 1: B1 DNA 1 with A31T
DNA 2: B1 DNA 2 with T29A
In turn, B2 displayed a Kd of approximately 2640 nM.

B3: probe 2 (dsDNA)
DNA 1: B1 DNA 1 with A30G
DNA 2: B1 DNA 2 with T30C
Regarding B3, binding was put at a Kd of 92.7 nM.

B4: probe 4 (dsDNA)
DNA 1: B1 DNA 1 with T33G
DNA 2: B1 DNA 2 with A27C
In the case of B4, binding was put at a Kd of 40.8 nM.
